Experimental data: the supplement of paper PMC12764529
± gives the half width of the 95% confidence interval.

How the values were obtained:
[1] = folding stability dG unfold (combined trypsin and chymotrypsin); higher = more stable
Method in brief: (§1)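 Sequencing followed digestion of designed mini-proteins with trypsin and chymotrypsin, each at 11 concentrations in threefold dilutions together with a no-protease condition. The mini-proteins were under 80 residues, had no cysteine, sat in a PA-tagged cDNA display construct, and were kept only if AlphaFold2 dimer inter-PAE was above 15. From the counts, Bayesian fitting gave K50, and unfolding free energy was derived against a sequence-predicted unfolded-state K50 and a shared folded-state K50, per protease or combined.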

[2] = folding stability dG unfold from chymotrypsin proteolysis; higher = more stable
Method in brief: as §1

[3] = folding stability dG unfold from trypsin proteolysis; higher = more stable
Method in brief: as §1

Sequence	folding stability dG unfold [1] [kcal/mol]	folding stability dG unfold [2] [kcal/mol]	folding stability dG unfold [3] [kcal/mol]
SAGGSAGGDPNDKPMKFELIETFTIPGNLNEAKDFLEDLLPPNWAINVEQEPGMITITIYKMKDSAGGSAGG [r6_953_TrROS]	2.22 ± 0.2	2.23 ± 0.073	1.78 ± 0.17
SAGGSAGGSEKKPPEVTVVIKLPKGTSLEELLAALPPGAKAEIVEVVKVDEEKNEVYVKIRLTSAGGSAGGS [r12_469_TrROS_Hall]	2.61 ± 0.095	2.71 ± 0.04	2.26 ± 0.11
SGMKSVTTPVSLTINTSPEEAEEFIEKLAKERGIEDVTVVKVTTDPATGTLTVEAELHTTIPPLPPPSSVSA [r9_918_JUSTAS]	1.1 ± 0.27	1.17 ± 0.061	1.07 ± 0.044
SAGGSAGGSAGMKLTITVTFPDGTTPTFEVPPNSGDPAEVAAAIRAAHPDVVTITITPELSAGGSAGGSAGG [r11_311_JUSTAS]	0.448 ± 0.12	0.27 ± 0.063	0.683 ± 0.039
SAGGETVEIEVEMSPEEVREAIKKAAEALDAEVVEVKYDKETKKVTITVKKGATEEELRKALEEALKSAGGS [r8_338_TrROS_Hall]	2.19 ± 0.095	1.78 ± 0.095	2.47 ± 0.12
SGMERTPLTPTETVTLTIPPGSLTITPTASPGPLTVTVTVPGSGTPTVVELPVEAPDLDAALAAVVAALQSA [r9_982_JUSTAS]	1.12 ± 0.056	1.39 ± 0.078	0.787 ± 0.04
SDKIIIPIYLPPGQDPDEIKNEIKWFARELWDKLGLPPNVKVEIEPRPYPEGYRRYMITIRLGGKEITIWSA [r9_776_TrROS]	3.34 ± 0.22	3.6 ± 0.053	3.08 ± 0.1
SAGSKTITLEFNFEELKVKVTVTYDPEGEPTVTVTTTIYAKGGEKLETKTTTVTASPDDPVVKAFLESSSAG [r5_964_JUSTAS]	2.77 ± 0.074	3.16 ± 0.084	2.19 ± 0.041
SKVRELLREIARPHGMPITDVKVEPPPDGWHKVTFQIQFPMKDPNGQPMRRMTFPATITVRNGKITEITISA [r9_519_TrROS]	1.72 ± 0.34	1.56 ± 0.12	1.54 ± 0.11
SAGGSSSLSGLKNVTEEPRLAPDSDEEEVLITYENGYLERREPGVLEFYDPENGKVLSKKNVPYHHSAGGSA [r2_374_JUSTAS]	-0.326 ± 0.3	-0.0765 ± 0.3	-0.806 ± 0.35
SAGGSAMEKLKEIPGIERIEVKEDGKIIIHVKMSEEERKKLAEALRKEGKVKIEVVPVEVEEEEEESAGGSA [r15_554_TrROS_Hall]	2.3 ± 0.11	2.03 ± 0.072	2.83 ± 0.12
SAGGGEIKIEIYRHPDTIMIRVKWDNPQQLKEEIIELFREENGFKPKEVSVQYNPNGYLYIMFEFKPKSAGG [r13_158_TrROS]	3.64 ± 0.21	4.12 ± 0.086	2.59 ± 0.12
SAGGGMTVTIEVEGSIKKSIKGISYKDDKEKKESNKNKYLKKTITVTLTAEDDPNAAAAAIAALGLGSAGGS [r16_467_JUSTAS]	0.181 ± 0.25	0.313 ± 0.21	0.144 ± 0.23
SAGGSADNIEFKFPGIEEVTVWPDKIMFKLPNGYYYVITINNIDEIEIIEVIPPVPPPPPEDPDDKSAGGSA [r15_393_TrROS]	2.4 ± 0.34	2.29 ± 0.11	2.38 ± 0.39
SAGGTIFIPWEEAEEFIENAFENGEDIEIEFFLDDGWWYKFTITGPDIDLRVVEVVPMPPPPEDPGKKSAGG [r13_839_TrROS]	2.34 ± 0.11	2.82 ± 0.042	0.836 ± 0.056
SAGGSAGGSAGGLDLSVPGLTSVTPVLLEDPRGYVTTVYTTTYPDGTVLTHTTVLPASLLSAGGSAGGSAGG [r7_214_JUSTAS]	1.16 ± 0.024	1.16 ± 0.031	1.09 ± 0.025
SAGEKEVIEIEVRVTVVRRLPEDLSEEQRKALEDELEVEEVTVRVRFDLDTGRIYVEFEDGSRLEFELPSAG [r5_701_TrROS_Hall]	3.16 ± 0.1	3.37 ± 0.066	2.67 ± 0.054
SALLVAPDGTVVKPETIKTTVETFTTYFLPPGKPVTRKGVKEYTVTVTTTTYTTPNPTLTVETTVTTVGSAG [r14_291_JUSTAS]	0.392 ± 0.2	0.667 ± 0.2	-0.0458 ± 0.11
SAGGSAGMTPVSEAVVPGPNVTTLTTYRDPSSSALITPVTTTPPDGVPVTTTTLDLGSSTVTLSTTSAGGSA [r15_993_JUSTAS]	0.97 ± 0.082	0.583 ± 0.21	1.06 ± 0.053
SAGGSAGGSKKKNKPAPPVLVVKVEIVKIELSDEELEAIKKNKEKIKEIYLIKIEVTLVEPEESAGGSAGGS [r12_196_TrROS_Hall]	1.94 ± 0.14	2.18 ± 0.062	1.17 ± 0.11
SAGMKIKVEVKETGETYEIEISEEELKKKLKEKFPEVKEITVVVEDPEDMSEEELREKALKAAEELLKSAGG [r19_298_TrROS_Hall]	2.28 ± 0.18	2.49 ± 0.051	1.59 ± 0.067
